Assay results taken from US8012695B2, “Methods and compositions relating to promoter regulation by MUC1 and KLF proteins” (Dana-Farber Cancer Institute, Inc., priority 2007, dated 2011).
Ends that are not written are not given here.

Columns and labels:
[1] = target: T1, KLF4 (Homo sapiens, UniProt O43474); assay: GST pull-down assay with 35S-labeled KLF4; format: binding; details: adsorbates to glutathione beads, 2 h at 4° C., autoradiography
T1 construct: host or cells: rabbit reticulocyte lysate, cell-free transcription/translation
Protocol: FIG. 3D is a pair of photographs of (a) an autoradiogram and (b) a Coomassie blue stained polyacrylamide gel. GST, GST-MUC1-CD(1-72), GST-MUC1-CD(47-72), or GST-MUC1-CD(1-46) were bound to glutathione-conjugated agarose beads and incubated with [^35S]-labeled KLF4 protein. The beads were washed to remove unbound KLF4 protein. The remaining adsorbates were analyzed by SDS-PAGE and autoradiography (top photograph). Input KLF4 protein is shown in the first lane of the top photograph. Input of the GST and GST-MUC1-CD fusion proteins was assessed by Coomassie blue staining. The molecular weights of the proteins (expressed in kilodaltons (kDa)) are indicated at the left of each of the photographs.
GST pull-down assays. GST and GST fusion proteins were purified by binding to glutathione-agarose beads (Sigma). ^35S-labeled KLF4, prepared in rabbit reticulocyte lysate transcription/translation (TNT) reactions (Promega Corporation), was incubated with GST or the GST fusion proteins for 2 h at 4° C. After washing, the adsorbed proteins were resolved by SDS-PAGE and analyzed by autoradiography.
To determine if MUC1-C occupies the PE21 region with KLF4, Re-ChIP assays were performed using anti-MUC1-C and anti-KLF4 antibodies. […] Moreover, DNA damage had little if any effect on this interaction (FIG. 7B). […]

[2] = system: p53 promoter; assay: p53 promoter-Luc reporter assay in ZR-75-1 cells; format: cell-based, human
Protocol: FIG. 4A is a bar graph (left) and a series of photographs of western blots (right) depicting the suppression of p53 gene transcription by MUC1. Bar graph, Left: ZR-75-1/MUC1siRNA cells were transfected with the −2400-p53-Luc reporter or the −320-p53-Luc reporter construct. The X-axis indicates the amount of MUC1-CD DNA (and a control LacZ expression plasmid) in μg (“μg MUC1-CD) also transfected into each cell. the indicated amounts of MUC1-CD. At 40 h after transfection, lysates were prepared from the transfected cells and assayed for luciferase activity. The Y-axis represents the relative luciferase activity expressed as fold activation (mean±SD of 3 separate experiments) compared to that obtained with empty vector-transfected cells (assigned a value of 1). Western blots, right: ZR-75-1/MUC1siRNA cells were transfected with the indicated amounts (in μg) of pCMV or pCMV-MUC1-CD vectors. At 24 hours after transfection, lysates from the indicated ZR-75-1/MUC1siRNA cells were immunoblotted (“IB”) with antibodies specific for p53, MUC1-C, or β-actin (as indicated below each photograph). […]
FIG. 4B is a pair of bar graphs. […] The Y-axis represents the relative luciferase activity expressed as the fold activation (mean±SD of 3 separate experiments) compared to that obtained with empty vector-transfected cells (assigned a value of 1). […]

[3] = system: p53 promoter; assay: p53 promoter-Luc reporter assay in MCF-7 cells; format: cell-based, human; details: −2400-p53-Luc, 0.5 μg MUC1-CD, increasing amounts of KLF4
Protocol: FIG. 4B is a pair of bar graphs. MCF-7 (left bar graph) or ZR-75-1 (right bar graph) cells were transfected with the −2400-p53-Luc reporter, the indicated amounts (0, 0.5, or 1 μg) of KLF4, 0.5 μg MUC1-CD and an internal control LacZ expression plasmid (pCMV-LacZ). At 40 hours after transfection, the cells were assayed for luciferase activity (as described above). The Y-axis represents the relative luciferase activity expressed as the fold activation (mean±SD of 3 separate experiments) compared to that obtained with empty vector-transfected cells (assigned a value of 1).
Transfection and reporter assays. Transfections were performed in 60 mm dishes using Fugene-6 (Roche Applied Science) or, for the luciferase assays, in 24 well plates using the calcium phosphate method (Invitrogen). Cells were transfected with the −2400-p53-Luc reporter, −2400-PE21-MUT-Luc reporter, −320-p53-Luc reporter, −320-PE21-MUT-Luc reporter (Rowland et al. (2005) Nat. Cell Biol. 7: 1074-1082) and an internal control LacZ expression plasmid (pCMV-LacZ) (Wei et al. (2001) J. Biol. Chem. 276: 16107-16112). Luciferase assays were performed with the Luciferase Assay System (Promega Corporation, Madison, Wis.) at 40 hours after transfection. Luciferase activity was normalized to that obtained for LacZ and presented as relative luciferase activity. […]

[4] = system: ZR-75-1 breast cancer cells; assay: Immunoblot analysis of p53 in ZR-75-1 cells; format: cell-based, human; details: ZR-75-1/MUC1siRNA cells transfected with pCMV-MUC1-CD, 24 hours
Protocol: Cell culture. […] Human ZR-75-1 breast cancer cells and those stably infected with a control siRNA (ZR-75-1/CsiRNA) or one expressing a MUC1siRNA (ZR-75-1/MUC1siRNA) (Wei et al. (2006) Mol. Cell. 21: 295-305) were cultured in RPMI 1640 medium supplemented with 10% HI-FBS, 100 μg/ml streptomycin, 100 units/ml penicillin, and 2 mM L-glutamine.
Immunoblotting. […] Immunoblot analysis was performed with anti-p53 (Ab-2, Ab-6; Oncogene Research Products), anti-MUC1-C (Ab-5; Neomarkers, Freemont, Calif.), anti-KLF4 (H-180; Santa Cruz Biotechnology), anti-β-actin (Sigma), anti-IκBα (Santa Cruz Biotechnology), or anti-PCNA (F-2; Santa Cruz Biotechnology) antibodies. Whole cell lysates were also, prior to analysis by immunoblotting, first subjected to immunoprecipitation with an anti-KLF4 antibody. Immunocomplexes were detected with enhanced chemiluminescence (ECL; PerkinElmer Life Sciences).

T1 sequence (O43474 10-513 limits assumed): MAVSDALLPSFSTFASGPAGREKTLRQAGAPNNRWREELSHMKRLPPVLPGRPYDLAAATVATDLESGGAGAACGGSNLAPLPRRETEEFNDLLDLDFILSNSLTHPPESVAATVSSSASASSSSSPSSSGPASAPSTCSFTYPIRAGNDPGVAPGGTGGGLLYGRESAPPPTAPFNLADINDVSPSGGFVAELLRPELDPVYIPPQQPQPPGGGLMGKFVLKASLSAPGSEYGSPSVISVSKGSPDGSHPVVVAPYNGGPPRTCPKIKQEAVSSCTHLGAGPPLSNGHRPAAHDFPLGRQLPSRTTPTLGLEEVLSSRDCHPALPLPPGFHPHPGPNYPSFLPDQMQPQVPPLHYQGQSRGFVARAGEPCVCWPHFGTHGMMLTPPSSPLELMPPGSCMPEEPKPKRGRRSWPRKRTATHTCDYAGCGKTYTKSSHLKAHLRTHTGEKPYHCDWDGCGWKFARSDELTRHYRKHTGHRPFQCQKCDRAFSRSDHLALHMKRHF

Row | binding of [35S]-labeled KLF4 to GST fusion protein [1] | Molecule | p53 gene transcription (luciferase activity) ([2]; ZR-75-1/MUC1siRNA cells, −2400-p53-Luc or −320-p53-Luc, 40 h after transfection) | effect on KLF4-mediated suppression of p53 transcription (luciferase) ([2]; ZR-75-1 cells, −2400-p53-Luc, 0.5 μg MUC1-CD, increasing amounts of KLF4) | effect on KLF4-mediated suppression of p53 transcription (luciferase) [3] | p53 levels (immunoblot) [4]
1 | not | MUC1-CD(47-72): GST fusion of MUC1-CD deletion fragment, amino acids 47-72 (EKVSAGNGGSSLSYTNPAVAAASANL; also: GST fusion (side not given here); listed as Homo sapiens) | – | – | – | –
2 | binds | MUC1-CD(1-72): GST fusion of the MUC1 cytoplasmic domain, amino acids 1-72 (SEQ ID NO:2) (protein, left off: a dimerising Fc or GST) CQCRRKNYGQLDIFPARDTYHPMSEYPTYHTHGRYVPPSSTDRSPYEKVSAGNGGSSLSYTNPAVAAASANL | – | – | – | –
3 | – | MUC1-CD: MUC1 cytoplasmic domain expressed in cells by transfection of the pCMV-MUC1-CD vector (protein, listed as Homo sapiens) CQCRRKNYGQLDIFPARDTYHPMSEYPTYHTHGRYVPPSSTDRSPYEKVSAGNGGSSLSYTNPAVAAASANL | suppresses p53 gene transcription | potentiates KLF4-mediated suppression of p53 transcription | potentiates KLF4-mediated suppression of p53 transcription | downregulates p53 levels
